Results as given in patent US20230357342A1 (published 2023).

T1: IL-18 receptor on HEK-Blue IL18R reporter cells (UniProt Q13478 19-541; O95256 20-599, limits assumed)
T1 sequence (looked up) 1: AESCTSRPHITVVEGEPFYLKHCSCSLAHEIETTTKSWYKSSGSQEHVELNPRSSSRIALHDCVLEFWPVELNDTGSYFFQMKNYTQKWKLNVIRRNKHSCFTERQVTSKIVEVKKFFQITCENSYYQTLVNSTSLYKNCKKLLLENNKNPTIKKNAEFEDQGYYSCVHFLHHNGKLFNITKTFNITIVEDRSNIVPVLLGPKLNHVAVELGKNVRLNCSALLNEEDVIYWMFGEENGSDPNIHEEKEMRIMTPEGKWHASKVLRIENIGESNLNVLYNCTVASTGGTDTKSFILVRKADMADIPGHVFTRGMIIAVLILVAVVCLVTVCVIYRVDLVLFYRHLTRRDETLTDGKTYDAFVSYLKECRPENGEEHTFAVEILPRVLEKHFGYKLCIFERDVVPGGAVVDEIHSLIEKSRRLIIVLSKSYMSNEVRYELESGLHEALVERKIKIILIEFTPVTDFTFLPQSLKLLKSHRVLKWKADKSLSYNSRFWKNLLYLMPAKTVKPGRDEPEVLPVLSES
T1 sequence (looked up) 2: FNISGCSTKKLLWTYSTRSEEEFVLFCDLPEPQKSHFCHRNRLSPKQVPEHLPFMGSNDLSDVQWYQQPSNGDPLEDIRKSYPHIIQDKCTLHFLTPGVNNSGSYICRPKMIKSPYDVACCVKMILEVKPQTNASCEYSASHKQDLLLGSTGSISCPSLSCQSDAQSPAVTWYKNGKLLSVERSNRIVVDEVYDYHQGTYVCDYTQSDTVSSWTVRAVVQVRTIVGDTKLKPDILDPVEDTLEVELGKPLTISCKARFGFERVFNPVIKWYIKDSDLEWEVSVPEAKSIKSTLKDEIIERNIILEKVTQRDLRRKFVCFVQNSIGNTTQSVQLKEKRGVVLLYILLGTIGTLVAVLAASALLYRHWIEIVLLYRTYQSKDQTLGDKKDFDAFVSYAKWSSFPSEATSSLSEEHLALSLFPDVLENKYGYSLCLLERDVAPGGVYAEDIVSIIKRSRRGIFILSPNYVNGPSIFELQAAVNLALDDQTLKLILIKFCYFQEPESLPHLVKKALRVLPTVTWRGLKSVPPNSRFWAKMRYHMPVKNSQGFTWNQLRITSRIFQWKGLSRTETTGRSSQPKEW

B1: modified IL-18 polypeptide SEQ ID NO: 30 (E6K, V11I, C38A, K53A, T63A, C76A, C127A) (ligand)
chain: YFGKLKSKLSIIRNLNDQVLFIDQGNRPLFEDMTDSDARDNAPRTIFIISMYADSQPRGMAVAISVKCEKISTLSAENKIISFKEMNPPDNIKDTKSDIIFFQRSVPGHDNKMQFESSSYEGYFLAAEKERDLFKLILKKEDELGDRSIMFTVQNED
B2: modified IL-18 polypeptide SEQ ID NO: 209 (F2A, V11I, C38A, K53A, C76A, C127A) (ligand)
chain: YAGKLESKLSIIRNLNDQVLFIDQGNRPLFEDMTDSDARDNAPRTIFIISMYADSQPRGMAVTISVKCEKISTLSAENKIISFKEMNPPDNIKDTKSDIIFFQRSVPGHDNKMQFESSSYEGYFLAAEKERDLFKLILKKEDELGDRSIMFTVQNED
B3: modified IL-18 polypeptide SEQ ID NO: 211 (V11I, T34A, C38A, K53A, C76A, C127A) (ligand)
chain: YFGKLESKLSIIRNLNDQVLFIDQGNRPLFEDMADSDARDNAPRTIFIISMYADSQPRGMAVTISVKCEKISTLSAENKIISFKEMNPPDNIKDTKSDIIFFQRSVPGHDNKMQFESSSYEGYFLAAEKERDLFKLILKKEDELGDRSIMFTVQNED
B4: modified IL-18 polypeptide SEQ ID NO: 206 (V11I, C38A, K53A, S55A, C76A, C127A) (ligand)
chain: YFGKLESKLSIIRNLNDQVLFIDQGNRPLFEDMTDSDARDNAPRTIFIISMYADAQPRGMAVTISVKCEKISTLSAENKIISFKEMNPPDNIKDTKSDIIFFQRSVPGHDNKMQFESSSYEGYFLAAEKERDLFKLILKKEDELGDRSIMFTVQNED
B5: modified IL-18 polypeptide SEQ ID NO: 216 (V11I, C38A, D40A, K53A, C76A, C127A) (ligand)
chain: YFGKLESKLSIIRNLNDQVLFIDQGNRPLFEDMTDSDARANAPRTIFIISMYADSQPRGMAVTISVKCEKISTLSAENKIISFKEMNPPDNIKDTKSDIIFFQRSVPGHDNKMQFESSSYEGYFLAAEKERDLFKLILKKEDELGDRSIMFTVQNED
B6: modified IL-18 polypeptide SEQ ID NO: 213 (V11I, S36A, C38A, K53A, C76A, C127A) (ligand)
chain: YFGKLESKLSIIRNLNDQVLFIDQGNRPLFEDMTDADARDNAPRTIFIISMYADSQPRGMAVTISVKCEKISTLSAENKIISFKEMNPPDNIKDTKSDIIFFQRSVPGHDNKMQFESSSYEGYFLAAEKERDLFKLILKKEDELGDRSIMFTVQNED
B7: modified IL-18 polypeptide SEQ ID NO: 204 (V11I, C38A, K53A, C76A, C127A) (ligand)
chain: YFGKLESKLSIIRNLNDQVLFIDQGNRPLFEDMTDSDARDNAPRTIFIISMYADSQPRGMAVTISVKCEKISTLSAENKIISFKEMNPPDNIKDTKSDIIFFQRSVPGHDNKMQFESSSYEGYFLAAEKERDLFKLILKKEDELGDRSIMFTVQNED
B8: modified IL-18 polypeptide SEQ ID NO: 205 (V11I, C38A, K53A, T63A, C76A, C127A) (ligand)
chain: YFGKLESKLSIIRNLNDQVLFIDQGNRPLFEDMTDSDARDNAPRTIFIISMYADSQPRGMAVAISVKCEKISTLSAENKIISFKEMNPPDNIKDTKSDIIFFQRSVPGHDNKMQFESSSYEGYFLAAEKERDLFKLILKKEDELGDRSIMFTVQNED
B9: modified IL-18 polypeptide SEQ ID NO: 214 (V11I, D37A, C38A, K53A, C76A, C127A) (ligand)
chain: YFGKLESKLSIIRNLNDQVLFIDQGNRPLFEDMTDSAARDNAPRTIFIISMYADSQPRGMAVTISVKCEKISTLSAENKIISFKEMNPPDNIKDTKSDIIFFQRSVPGHDNKMQFESSSYEGYFLAAEKERDLFKLILKKEDELGDRSIMFTVQNED
B10: modified IL-18 polypeptide SEQ ID NO: 215 (V11I, E31A, D37A, C38A, K53A, C76A, C127A) (ligand)
chain: YFGKLESKLSIIRNLNDQVLFIDQGNRPLFADMTDSAARDNAPRTIFIISMYADSQPRGMAVTISVKCEKISTLSAENKIISFKEMNPPDNIKDTKSDIIFFQRSVPGHDNKMQFESSSYEGYFLAAEKERDLFKLILKKEDELGDRSIMFTVQNED
B11: modified IL-18 polypeptide SEQ ID NO: 212 (V11I, D35A, C38A, K53A, C76A, C127A) (ligand)
chain: YFGKLESKLSIIRNLNDQVLFIDQGNRPLFEDMTASDARDNAPRTIFIISMYADSQPRGMAVTISVKCEKISTLSAENKIISFKEMNPPDNIKDTKSDIIFFQRSVPGHDNKMQFESSSYEGYFLAAEKERDLFKLILKKEDELGDRSIMFTVQNED
B12: modified IL-18 polypeptide SEQ ID NO: 217 (V11I, C38A, N41A, K53A, C76A, C127A) (ligand)
chain: YFGKLESKLSIIRNLNDQVLFIDQGNRPLFEDMTDSDARDAAPRTIFIISMYADSQPRGMAVTISVKCEKISTLSAENKIISFKEMNPPDNIKDTKSDIIFFQRSVPGHDNKMQFESSSYEGYFLAAEKERDLFKLILKKEDELGDRSIMFTVQNED
B13: modified IL-18 polypeptide SEQ ID NO: 208 (V11I, C38A, K53A, D54A, C76A, C127A) (ligand)
chain: YFGKLESKLSIIRNLNDQVLFIDQGNRPLFEDMTDSDARDNAPRTIFIISMYAASQPRGMAVTISVKCEKISTLSAENKIISFKEMNPPDNIKDTKSDIIFFQRSVPGHDNKMQFESSSYEGYFLAAEKERDLFKLILKKEDELGDRSIMFTVQNED
B14: modified IL-18 polypeptide SEQ ID NO: 207 (V11I, C38A, M51G, K53A, C76A, C127A) (ligand)
chain: YFGKLESKLSIIRNLNDQVLFIDQGNRPLFEDMTDSDARDNAPRTIFIISGYADSQPRGMAVTISVKCEKISTLSAENKIISFKEMNPPDNIKDTKSDIIFFQRSVPGHDNKMQFESSSYEGYFLAAEKERDLFKLILKKEDELGDRSIMFTVQNED
B15: modified IL-18 polypeptide SEQ ID NO: 210 (V11I, E31A, C38A, K53A, C76A, C127A) (ligand)
chain: YFGKLESKLSIIRNLNDQVLFIDQGNRPLFADMTDSDARDNAPRTIFIISMYADSQPRGMAVTISVKCEKISTLSAENKIISFKEMNPPDNIKDTKSDIIFFQRSVPGHDNKMQFESSSYEGYFLAAEKERDLFKLILKKEDELGDRSIMFTVQNED
B16: modified IL-18 polypeptide SEQ ID NO: 62 (E6K, C38A, K53A, C127A) (ligand)
chain: YFGKLKSKLSVIRNLNDQVLFIDQGNRPLFEDMTDSDARDNAPRTIFIISMYADSQPRGMAVTISVKCEKISTLSCENKIISFKEMNPPDNIKDTKSDIIFFQRSVPGHDNKMQFESSSYEGYFLAAEKERDLFKLILKKEDELGDRSIMFTVQNED
B17: modified IL-18 polypeptide SEQ ID NO: 61 (E6K, C38A, K53A, C76A) (ligand)
chain: YFGKLKSKLSVIRNLNDQVLFIDQGNRPLFEDMTDSDARDNAPRTIFIISMYADSQPRGMAVTISVKCEKISTLSAENKIISFKEMNPPDNIKDTKSDIIFFQRSVPGHDNKMQFESSSYEGYFLACEKERDLFKLILKKEDELGDRSIMFTVQNED
B18: modified IL-18 polypeptide SEQ ID NO: 60 (E6K, C38Q, K53A) (ligand)
chain: YFGKLKSKLSVIRNLNDQVLFIDQGNRPLFEDMTDSDQRDNAPRTIFIISMYADSQPRGMAVTISVKCEKISTLSCENKIISFKEMNPPDNIKDTKSDIIFFQRSVPGHDNKMQFESSSYEGYFLACEKERDLFKLILKKEDELGDRSIMFTVQNED
B19: modified IL-18 polypeptide SEQ ID NO: 59 (E6K, C38A, K53A) (ligand)
chain: YFGKLKSKLSVIRNLNDQVLFIDQGNRPLFEDMTDSDARDNAPRTIFIISMYADSQPRGMAVTISVKCEKISTLSCENKIISFKEMNPPDNIKDTKSDIIFFQRSVPGHDNKMQFESSSYEGYFLACEKERDLFKLILKKEDELGDRSIMFTVQNED
B20: modified IL-18 polypeptide SEQ ID NO: 63 (E6K, C38A, K53A, C76A, C127A) (ligand)
chain: YFGKLKSKLSVIRNLNDQVLFIDQGNRPLFEDMTDSDARDNAPRTIFIISMYADSQPRGMAVTISVKCEKISTLSAENKIISFKEMNPPDNIKDTKSDIIFFQRSVPGHDNKMQFESSSYEGYFLAAEKERDLFKLILKKEDELGDRSIMFTVQNED

target: T1, IL-18 receptor on HEK-Blue IL18R …; assay: cell-based or functional assay

In order of falling “EC50, HEK-Blue IL18R reporter (SEAP)” value:
1. B9  14.1 nM
2. B11  13.1 nM
3. B10  11.9 nM
4. B12  11.7 nM
5. B2  7.28 nM
6. B15  6.6 nM
7. B4  3.63 nM
8. B13  1 nM
9. B7  0.98 nM
10. B14  0.8 nM
11. B3  0.7 nM
12. B5  0.52 nM
13. B19  0.268 nM
14. B6  0.25 nM
15. B18  0.203 nM
16. B8  0.17 nM
17. B16  0.17 nM
18. B17  0.084 nM
19. B1  0.053 nM
20. B20  0.0139 nM
